Experimental data from patent publication US20220033501A1 (SHANGHAI PHARMAEXPLORER, published 2022).
Where a chain is given by its changes, count along the chain named.

T1: human TIM-3 on CHOK1 stable cell line (CHOK1-hTIM-3) (human, UniProt Q8TDQ0 22-301)
T1 sequence: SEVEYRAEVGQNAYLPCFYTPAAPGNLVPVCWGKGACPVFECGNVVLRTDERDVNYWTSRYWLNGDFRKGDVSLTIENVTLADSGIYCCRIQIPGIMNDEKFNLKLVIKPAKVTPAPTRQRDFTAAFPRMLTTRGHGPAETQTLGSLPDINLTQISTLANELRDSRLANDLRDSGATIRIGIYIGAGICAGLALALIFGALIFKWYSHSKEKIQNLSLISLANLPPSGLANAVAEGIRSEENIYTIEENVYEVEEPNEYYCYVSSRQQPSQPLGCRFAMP

T2: monkey TIM-3 on CHOK1 stable cell line (CHOK1-cTIM-3) (monkey)
T2 chain: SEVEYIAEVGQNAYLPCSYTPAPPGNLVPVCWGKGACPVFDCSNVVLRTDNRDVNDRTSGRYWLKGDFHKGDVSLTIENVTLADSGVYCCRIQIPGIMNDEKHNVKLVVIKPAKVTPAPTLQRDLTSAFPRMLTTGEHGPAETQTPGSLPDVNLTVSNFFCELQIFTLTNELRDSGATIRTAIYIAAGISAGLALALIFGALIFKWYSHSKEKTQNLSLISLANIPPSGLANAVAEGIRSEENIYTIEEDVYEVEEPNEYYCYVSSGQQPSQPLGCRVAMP

T3: human TIM-3 protein with hFc tag (hTIM-3-hFc protein) (human, UniProt Q8TDQ0 22-200)
T3 construct: also called immunogen 1; human TIM-3 extracellular domain protein; not shown: human IgG Fc fragment (hFc) of the pCpC vector
T3 sequence: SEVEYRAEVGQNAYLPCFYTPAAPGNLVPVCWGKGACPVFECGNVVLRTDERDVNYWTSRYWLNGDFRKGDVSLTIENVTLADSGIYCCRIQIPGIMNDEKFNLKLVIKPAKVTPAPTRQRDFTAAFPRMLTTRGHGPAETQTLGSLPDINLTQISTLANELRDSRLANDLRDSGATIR

T4: monkey TIM-3 protein with hFc tag (cTIM-3-hFc protein) (monkey; human)
T4 construct: Made in HEK293 cells; also called monkey TIM-3 extracellular domain protein; not shown: human IgG Fc fragment (hFc) of the pCpC vector
T4 chain: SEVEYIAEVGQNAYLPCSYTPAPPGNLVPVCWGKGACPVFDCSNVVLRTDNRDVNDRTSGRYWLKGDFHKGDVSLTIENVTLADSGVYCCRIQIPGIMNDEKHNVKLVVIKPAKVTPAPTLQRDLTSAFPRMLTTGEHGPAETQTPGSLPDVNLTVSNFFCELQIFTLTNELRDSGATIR

T5: human TIM-3 extracellular domain protein with hFc tag (hTIM-3-hFc) (human, UniProt Q8TDQ0 22-200)
T5 construct: not shown: human IgG Fc fragment (hFc) of the pCpC vector
T5 sequence: T3 sequence

T6: monkey TIM-3 extracellular domain protein with hFc tag (cTIM-3-hFc) (monkey)
T6 construct: not shown: human IgG Fc fragment (hFc) of the pCpC vector
T6 chain: T4 chain

B1: 57F4E5 fully human TIM-3 antibody (human IgG4, kappa) (antibody, V domains shown)
VH: EVQLVESGGGLVQPGGSLRLSCAASGFTFSSYWMSWVRQAPGKGLEWVANIKQDGSEKYYVDSVKGRFTISRDSAKNSLYLQMNSLRAEDTAMYFCARDSNFFDYWGQGTLVTVSS
VL: ETVMTQSPATLSVSPGERATLSCRASQSVSSNLAWYQRKPGQAPRLLIYFSSTRATGIPARFSGSGSGTEFTLTISSLQSEDFAVYYCQQYNNWPLTFGGGTKVEIK
B2: 18D2H2 fully human TIM-3 antibody (human IgG4, kappa) (antibody, V domains shown)
VH: EVQLVESGGDLVQPGGSLRLSCAASGFTFSTYWMTWVRQAPGRGLEWVANIKQDGSAKYYVDSVKGRFTLSRDDAKNSLYLQMNSLRAEDTAVYYCARGSNWFDYWGQGTLVTVSS
VL: B1 VL with S26N, S28N, S30Y, R38Q, F50D, S51A, I58F
B3: 134H3G6 fully human TIM-3 antibody (human IgG4, kappa) (antibody, V domains shown)
VH: EVQLVESGGGLVQPGGSLRLSCAASGFTFSNSWMTWVRQAPGKGLEWVANIKQAGTEKYYVDSVKGRFTISRDNAKNSLYLQMNSLRAEDTAVYYCNSGSNYFDYWGQGTLVTVSS
VL: B1 VL with T2I, S26R, S28N, V29F, S30Y, R38Q, F50G, S51A
B4: 215A8F2 fully human TIM-3 antibody (human IgG4, kappa) (antibody, V domains shown)
VH: QVQLQQWGAGLLKPSETLSLTCTVYGGSFSGYYWNWIRQPPGKGLEWLGEINHSGSTNYNPSLKRRVTISVDTSKNQFSLKLSSVTAADTAVYYCARVYYYGPFDFWGQGTLVTVSS
VL: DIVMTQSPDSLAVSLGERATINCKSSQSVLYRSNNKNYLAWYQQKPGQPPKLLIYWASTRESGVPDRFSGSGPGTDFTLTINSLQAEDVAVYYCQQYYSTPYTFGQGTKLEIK
B5: 7A4F10 fully human TIM-3 antibody (human IgG4, kappa) (antibody, V domains shown)
VH: EVQLLESGGGLVQPGGSLRLSCAASGFTFRTHLISWVRQAPGKGLEWVAAITGSGGSTYYADSVKGRFIISRDNSKNTLFLQMNSLRAEDTAVYYCAKDGGSGSYDDFWGQGTLVTVSS
VL: ETVLTQSPVTLSLSPGERATLSCRASQSVGSYLAWYQQKPGQAPRLLIYDASNRATGIPARFSGSGSGTDFTLTISSLEPEDFAVYYCQQRSNWPPTFGQGTKVEIK
B6: 18D2H2 (TIM-3 antibody purified from hybridoma, chimeric antibody of Example 2) (antibody, V domains shown)
VH: B2 VH
VL: B1 VL with S26N, S28N, S30Y, R38Q, F50D, S51A, I58F
notes: From hybridoma of Harbour H2L2 transgenic mice: human variable regions, rat constant regions
B7: 134H3G6 (TIM-3 antibody purified from hybridoma, chimeric antibody of Example 2) (antibody, V domains shown)
VH: B3 VH
VL: B1 VL with T2I, S26R, S28N, V29F, S30Y, R38Q, F50G, S51A
notes: as for B6
B8: 57F4E5 (TIM-3 antibody purified from hybridoma, chimeric antibody of Example 2) (antibody, V domains shown)
VH: B1 VH
VL: B1 VL
notes: as for B6
B9: 39E5H1 (TIM-3 antibody purified from hybridoma, chimeric antibody of Example 2) (antibody, V domains shown)
VH: EVQLVESGGGLVQPGGSLRLSCAASGFTFSSYWMSWVRQAPGKGLEWVANIKRGGSERYYVDSVKGRFTISGDNAKNSVYLQMNSLRAEDTAVYYCARGSNWFDPWGQGTLVTVSS
VL: B1 VL with T10I, S30Y, R38Q, P40L, F50D, S51A, L96I, G100Q, K103R, V104L
notes: as for B6
B10: 215A8F2 (TIM-3 antibody purified from hybridoma, chimeric antibody of Example 2) (antibody, V domains shown)
VH: B4 VH
VL: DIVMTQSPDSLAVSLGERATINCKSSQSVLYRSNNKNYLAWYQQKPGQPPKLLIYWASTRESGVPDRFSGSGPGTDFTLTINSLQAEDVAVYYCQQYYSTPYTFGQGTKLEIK
notes: as for B6
B11: 7A4F10 (TIM-3 antibody purified from hybridoma, chimeric antibody of Example 2) (antibody, V domains shown)
VH: B5 VH
VL: B5 VL
notes: as for B6
B12: 34B6D8 (TIM-3 antibody purified from hybridoma, chimeric antibody of Example 2) (antibody, V domains shown)
VH: B9 VH with S31T, S35T, G44R, R53Q, S56G, E57D, R58K, G72T, V79L
VL: EIVMTQSPATLSMSPGERATLSCRASQSVYDNLAWYQQKPGQAPRLLIYGASTRATGIPARFSGSGSGTEFTLTISSLQSEDFALYYCQQYTHWPITFGQGTRLEIK
notes: as for B6

biological target: T1, human TIM-3 on CHOK1 stable cell line …; experiment: FACS, CHOK1-hTIM-3 cells, 1.6 nM antibody

Row | Mean fluorescence intensity | Binder
1 | 156 | B1
2 | 232 | B2
3 | 207 | B3
4 | 235 | B4
5 | 282 | B5

Biological target: T2, monkey TIM-3 on CHOK1 stable cell line …
Experiment: FACS, CHOK1-cTIM-3 cells, 0.32 nM antibody

Row | Mean fluorescence intensity | Binder
6 | 80.6 | B1
7 | 127 | B2
8 | 134 | B3
9 | 92.5 | B4
10 | 52.7 | B5

Biological target: T2, monkey TIM-3 on CHOK1 stable cell line …
Experiment: FACS, CHOK1-cTIM-3 cells, 0.064 nM antibody

Row | Mean fluorescence intensity | Binder
11 | 30.6 | B1
12 | 44 | B2
13 | 46.4 | B3
14 | 29.9 | B4
15 | 17.2 | B5

biological target: T3, human TIM-3 protein with hFc tag …; experiment: ELISA, coated hTIM-3-hFc; antibody 0.0001 nM
Excerpt: (§1) The amino acid sequence 22-200 of the extracellular domain of the human TIM-3 protein described in the step of Example 1 (as shown in SEQ ID NO. 71 in the sequence listing) was cloned into a pCpC vector having a human IgG Fc fragment (hFc), and transfected into HEK293 cells. The cell culture medium was collected, and purified to obtain the human TIM-3 protein with hFc tag (herein referred to as hTIM-3-hFc protein). The amino acid sequence 22-201 of the extracellular domain of the monkey TIM-3 protein (as shown in SEQ ID NO. 72 in the sequence listing) was cloned into a pCpC vector having a human IgG Fc fragment (hFc), and transfected into HEK293 cells. The cell culture medium was collected, and purified to obtain the monkey TIM-3 protein with hFc tag (herein referred to as cTIM-3-hFc protein). […] The cell culture medium was collected, and purified to obtain the murine TIM-3 protein with hFc tag (herein referred to as mTIM-3-hFc protein). Purified human, monkey, and mouse TIM-3 extracellular domain proteins (hTIM-3-hFc, cTIM-3-hFc, and mTIM-3-hFc) were diluted with PBS to a final concentration of 1.0 μg/ml and then added to a 96-well ELISA plate with 100 μl per well. The plate was sealed with plastic film and incubated overnight at 4° C. The plate was washed 4 times with the plate washing solution (PBS+0.01% Tween20) on the next day, and added with the blocking solution (PBS+0.01% Tween20+1% BSA) and sealed at room temperature for 1-2 hours. The blocking solution was poured out. 50-100 μl of the antibody sample to be tested was added to each well. The plate was incubated at 37° C. for 1-2 hours, and washed 2-3 times with plate washing solution (PBS+0. 01% Tween20). HRP (horseradish peroxidase) labeled secondary antibody was added. The plate was incubated at 37° C. for 1-2 hours, and washed 2-3 times with plate washing solution (PBS+0. 01% Tween20). […] of TMB substrate was added to each well. After incubated at room temperature for 15-30 minutes, the plate was added with […] stop solution (1.0N HCl) to each well. An ELISA plate reader (TiterMax 384plus, Molecular Device) was used to read the A450 nm value.

Row | OD450 | Binder
16 | 0.12 | B6
17 | 0.12 | B7
18 | 0.13 | B8
19 | 0.13 | B9
20 | 0.12 | B10
21 | 0.12 | B11
22 | 0.12 | B12

biological target: T3, human TIM-3 protein with hFc tag …; experiment: ELISA, coated hTIM-3-hFc; antibody 0.0007 nM
Excerpt: as §1

Row | OD450 | Binder
23 | 0.12 | B6
24 | 0.13 | B7
25 | 0.19 | B8
26 | 0.16 | B9
27 | 0.14 | B10
28 | 0.12 | B11
29 | 0.15 | B12

biological target: T3, human TIM-3 protein with hFc tag …; experiment: ELISA, coated hTIM-3-hFc; antibody 0.0667 nM
Excerpt: as §1

Row | OD450 | Binder
30 | 0.35 | B6
31 | 0.2 | B7
32 | 2.83 | B8
33 | 1.78 | B9
34 | 1 | B10
35 | 0.21 | B11
36 | 1.62 | B12

Biological target: T4, monkey TIM-3 protein with hFc tag …
Experiment: ELISA, coated cTIM-3-hFc; antibody 0.0007 nM
Excerpt: as §1

Row | OD450 | Binder
37 | 0.54 | B6
38 | 0.55 | B7
39 | 0.64 | B8
40 | 0.61 | B9
41 | 0.55 | B10
42 | 0.55 | B11
43 | 0.61 | B12

biological target: T5, human TIM-3 extracellular domain …; experiment: ELISA, coated human TIM-3 ECD protein, 0.0007 nM antibody

Row | OD450 | Binder
44 | 0.11 | B1
45 | 0.11 | B2
46 | 0.1 | B3
47 | 0.1 | B4
48 | 0.11 | B5

biological target: T5, human TIM-3 extracellular domain …; experiment: ELISA, coated human TIM-3 ECD protein, 0.6667 nM antibody

Row | OD450 | Binder
49 | 2.89 | B1
50 | 2.58 | B2
51 | 2.74 | B3
52 | 2.88 | B4
53 | 2.75 | B5

Biological target: T6, monkey TIM-3 extracellular domain …
Experiment: ELISA, coated monkey TIM-3 ECD protein, 0.0667 nM antibody

Row | OD450 | Binder
54 | 1.34 | B1
55 | 1.56 | B2
56 | 1.3 | B3
57 | 1.37 | B4
58 | 0.68 | B5
